What is called EC50 is the concentration that produces a half-maximal response. High values mean lower potency in that assay, low ones higher potency in that assay.

In this assay the target is T1, human CD94 expressed on cells (human primary NK cells in PBMCs; HEK cells expressing human CD94) (human, UniProt Q13241 1-179).
T1 construct: whole, on cells; also called KLRD1; Natural killer cells antigen CD94
T1 sequence (looked up): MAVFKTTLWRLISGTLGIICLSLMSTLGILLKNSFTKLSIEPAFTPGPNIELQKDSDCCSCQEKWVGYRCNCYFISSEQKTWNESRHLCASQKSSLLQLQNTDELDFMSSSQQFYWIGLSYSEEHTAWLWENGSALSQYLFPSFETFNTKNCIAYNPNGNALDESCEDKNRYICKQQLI
The assay can be described thus: flow cytometry titration (100 nM to 0.046 nM) on primary NK cells in healthy donor PBMCs; human primary NK cells, flow cytometry titration. The method, then:
Peripheral blood monocuclear cells (PBMCs) of healthy donor HD-40 were used for antibody staining. 18H3 antibody was titrated from 100 nM to 0.046 nM in 1:3 dilutions and incubated with PBMCs. CD3 and CD56 antibodies were used to identify NK cells on the flow scatter. 18H3 antibody binding on […] and CD56 bright NK cells was used to assess affinity of 18H3. Titration curves and EC50 were generated using Graphpad Prism. […] Human IgG1 isotype control with secondary antibody (hIgG1) and goat (Fab)2 fragment anti-human Fcy-specific secondary antibody AF647 only (2ndary Ab) were used as controls.
Healthy donor PBMCs were seeded in 96 well plates at a density of 100,000 cells per well, incubated with human Fc block (Biolegend) and cell viability dye (Thermo Fisher) for 30 minutes on ice and protected from light. […] After incubation, the cells received a final wash in FACS buffer before quantification on the Cytoflex (Beckman Coulter). All data acquisition and fluorescence compensation were performed using CytoFlex (Beckman Coulter, Atlanta, GA). […] CD94 expression was then quantified on the CD3−CD56+NK cell population. […]
The affinity of the antibody clones was also assessed by flow cytometry analysis.
For orientation: In flow cytometry, cells or beads pass a laser one at a time.

B1: anti-CD94 antibody clone 18H3 (antibody, V domains shown)
VH: EVQLVQSGAEVKKPGESLKISCKGSGYRFTSYWIGWVRQMPGKGLEWMGIIYPGDSDTRYSPSFQGQVIISADKSITTAFLQWSSLKASDTAMYYCARPFDYGGSPGYFDYWGQGTLVTVSS
VL: DIQMTQSPSTLSASVGDRVTITCRASQSIRSWLAWYQQKPGKAPKLLIYKASSLESGVPSRFSGSGSGTEFTLTISSLQPDDFATYYCQQYNTFWTFGQGTKVEIK
notes: also called 18H3-AF647
Molecule B1 displayed a concentration giving a half-maximal response (EC50) of 2.6 nM.

(Values after US20250197505A1 (DREN BIO, published 2025).)
